Test results from patent US20110034670.

Test system: 4-(sulfamoyl)benzoyladenosine-pYEEI conjugate (9)

Src tyrosine kinase was tested, and the “enhancement of catalytic activity and phosphorylation” value was “enhanced the catalytic activity and phosphorylation by at least 40%”.
